experiment: soluble on expression in E. coli; label from the status in PepcDB or PDB records

Row | Sequence | soluble on expression in E. coli
1 | MTMDLRTGLAALALAAGLALPAAPALAEMSEITIARQPSIGHLPLMIMQERRLIETMAEAEGLGEVKVNYATFAGGSNMNDALLSNTIQFAAGGVPPLILLWSKTAGTSNEVKGVAAMNSMPLLMNVNREDIRSIEDFKPGDKIALPSVKVSVQAMVLQMAAAKIWGDENYGKLDPLTVSMSHPDGLAALLARQEVTAHFTASPAQDMALREPGVHTVLNSFDVMGGPVTFNVVWTTKAFHDDNPKLFDIFRRALAQAVEVVNEDPAEAVQVYLRQAGNATDPELLASILADPQVDYTVEPSGIDKYLDFMRRIGTVKDNGQPWEAMFFE | not soluble
2 | MSTAEFAQLLENSILSPDQNIRLTSETQLKKLSNDNFLQFAGLSSQVLIDENTKLEGRILAALTLKNELVSKDSVKTQQFAQRWITQVSPEAKNQIKTNALTALVSIEPRIANAAAQLIAAIADIELPHGAWPELMKIMVDNTGAEQPENVKRASLLALGYMCESADPQSQALVSSSNNILIAIVQGAQSTETSKAVRLAALNALADSLIFIKNNMEREGERNYLMQVVCEATQAEDIEVQAAAFGCLCKIMSKYYTFMKPYMEQALYALTIATMKSPNDKVASMTVEFWSTICEEEIDIAYELAQFPQSPLQSYNFALSSIKDVVPNLLNLLTRQNEDPEDDDWNVSMSAGACLQLFAQNCGNHILEPVLEFVEQNITADNWRNREAAVMAFGSIMDGPDKVQRTYYVHQALPSILNLMNDQSLQVKETTAWCIGRIADSVAESIDPQQHLPGVVQACLIGLQDHPKVATNCSWTIINLVEQLAEATPSPIYNFYPALVDGLIGAANRIDNEFNARASAFSALTTMVEYATDTVAETSASISTFVMDKLGQTMSVDENQLTLEDAQSLQELQSNILTVLAAVIRKSPSSVEPVADMLMGLFFRLLEKKDSAFIEDDVFYAISALAASLGKGFEKYLETFSPYLLKALNQVDSPVSITAVGFIADISNSLEEDFRRYSDAMMNVLAQMISNPNARRELKPAVLSVFGDIASNIGADFIPYLNDIMALCVAAQNTKPENGTLEALDYQIKVLEAVLDAYVGIVAGLHDKPEALFPYVGTIFQFIAQVAEDPQLYSEDATSRAAVGLIGDIAAMFPDGSIKQFYGQDWVIDYIKRTRSGQLFSQATKDTARWAREQQKRQLSL | soluble
3 | SLRILPQEPVIREEQNWLTILKNAISDPKLLLKALNLPEDDFEQSIAARKLFSLRVPQPFIDKIEKGNPQDPLFLQVMCSDLEFVQAEGFSTDPLEEKNANAVPNILHKYRNRLLFMAKGGCAVNCRYCFRRHFPYDENPGNKKSWQLALDYIAAHSEIEEVIFSGGDPLMAKDHELAWLIKHLENIPHLQRLRIHTRLPVVIPQRITDEFCTLLAETRLQTVMVTHINHPNEIDQIFAHAMQKLNAVNVTLLNQSVLLKGVNDDAQILKILSDKLFQTGILPYYLHLLDKVQGASHFLISDIEAMQIYKTLQSLTSGYLVPKLAREIAGEPNKTLYAE | soluble
4 | MRLVQDYDQQPIMYDEVELLIQAVDQQPHPLLRLRDKAIIQLGLQGGFRRSELANLKVHYLSFMRDKLKVRLPFSKSNQQGLREWKSLPDSEPFAAYHAVKSWLNESQITDGHLFRSISRDGKTLRPYHVNDNSKPKSTFSRNSGFLNGDDIYRIIKQYCLKAGLPAQYYGAHSLRSGCVTQLHENNKDILYIMARTGHTDPRSLRHYLKPKEDLEHHHHHH | soluble
5 | MVSMLLVGRIGKSVGLNGGLRLHLESDFPECLKKGVKVSVAPLNAFSCVSSFKEYIIHSYEHAKNLLFLETIQTPEKAKELTNLGLFMSEAESKKLCVLKEGEFFYCDLVGLSVVEENEILGKVIEIQRISQTDYFLVETTLNLVEKGLAKIFLIPYRDFYIQEILLQDKKITTHNAKTLLENSLEHHHHHH | soluble
6 | MAHHHHHHMTSLQNLFVAKLPRNLTDADLHQIFVQYNPTSAKVMLDATTGKSKGFGFVLFASEDAGRTAYEKLNKTHVTLHGHNFNLCIFPSKHDGKVAMEESNALYVRNIPLKLSQAEVEQFLRGFGPLTYCAMREDNFGGSVWVVYAEFDSVESAKRALMSLHGNRTYFNTSVAILAKYADSEETKRERRRRREQQQAEQQHLDTVHNFGSPTTGLDSNKGFAVQSQNTPLPPPPPPPMRTSPGHSSTGSTLASSYSTSDMHKEGTGASLHPPTFASISHHFAPGRHGGGGPPPAMGQPAAPPASSMLASSTLQPTQPVSGQPQQSPTPNSGSFLNVIFNPTSANNFGNSFTHYSVLDQTPSRSSPGTPLNFSFGPEMENSGALANGLGTGSHAMLSASGHAPMTPVRRSSNLSTSGSYRHNPYAPVTPVSSTHNSTGPSTPLVSSIAYPTAPLAIMHFGASHHLQGSPVALHPLGPGIGVANNHFASRGNNAYLAAPASFNDLSH | not soluble
7 | MGSDKIHHHHHHMLKNIPIPSPLSPVEGILIKRKTLERYFSIERLEQQAHQRAKRILREAEEEAKTLRMYAYQEGYEQGMIDALQQVAAYLTDNQTMAWKWMEKIQIYARELFSAAVDHPETLLTVLDEWLRDFDKPEGQLFLTLPVNAKKDHQKLMVLLMENWPGTFNLKYHQEQRFIMSCGDQIAEFSPEQFVETAVGVIKHHLDELPQDCRTISDNAINALIDEWKTKTQAEVIR | not soluble
8 | KLEFREVDKDALVNDEKLLREFFGIYVLAHYRNRPSDLAILLDMPNHLPFIVTVNGKPVCSLHIAVEGNLDDETIEKIKEGYKPKGQIIPDLMLKHYWDFEFPKLVGARVVRIATHPSVMDMGIGSFALAKIVEWAYGRDMDWVGSGFGVSPELLRFWAKNHFTPVHITPQRNE | not soluble
9 | MGSDKIHHHHHHMKDNFFGREYDIAPAGGETGQAFVATHEDEKFFLKRNSSPFLAALSVENIVPKLVWTRRVENGDVITAQKWVNCHILTREEMVGPRVAKLLAKIHHSENLQHMLAKIENCYFSADQLLSLIKVNTKANNELSKEIIAAIRYLEQNLSAAQTNDYVVCHGDVNHNNWIISEENELFLVDWDGAMLADPANDIGMILYQYIPRKDWVSWLSNYGTTLTEELHRKLKWYTICQTVMQLITEHSNEANERAKQIFQNAIEDDEV | not soluble
10 | GTGGAAATTYGAACAGGTGAATTTGAAGATATTGCGGGCATTACCGACATCTTTAACTTTTATATTGAACAAACCAATGCACGCTTTGAGGAATTTCCATTTACTCTGGAAAATCGTGAGGAATGGTTCTCTCAGTTTTCTAGAACCGCCAAATATCAAATATATGTGGCTGTAGAAAACGGTGTGTTGCAAGGTTTTGCATGTTCCCAAAAGTACAGAGCAATACCAGCTTTTGATGACACTGTAGAGGTGAGCGTTTATCTGGCACAAGAAGCTAAAGGGAAAGGTTTAGGTTCGAAGCTTTATACTCAGCTGTTTTCATCCATTCGTGCTTATGGCGTCCATCGTATATTGTCGGGTGTTGCATTACCAAATGACGCATCAGTAGCATTACATAAACGGTTTGGTTTCCGAGAAGTCGGCATTTCCAACGAATATGCCAAGAAACATGGGCAGTACATCAGCTCGTTGTGGTTAGAAAAAGCGCTTAACGTAGAGTCCGCTTTATAA | not soluble
11 | SLRFLGEKAAAKRQVLNADSVEQSFVGLKQLISCRNWRAAVDLCGRLLTAHGQGYGKSGLLTSHTTDSLQLWFVRLALLVKLGLFQNAEMEFEPFGNLDQPDLYYEYYPHVYPGRRGSMVPFSMRILHAELQQYLGNPQESLDRLHKVKTVCSKILANLEQGLAEDGGMSSVTQEGRQASIRLWRSRLGRVMYSMANCLLLMKDYVLAVEAYHSVIKYYPEQEPQLLSGIGRISLQIGDIKTAEKYFQDVEKVTQKLDGLQGKIMVLMNSAFLHLGQNNFAEAHRFFTEILRMDPRNAVANNNAAVCLLYLGKLKDSLRQLEAMVQQDPRHYLHESVLFNLTTMYELESSRSMQKKQALLEAVAGKEGDSFNTQCLKLA | not soluble
12 | MNSEALDNFEAPRFRPPDEPRMMKNYTTQFSPLDTPPPMNGTPPIAGMHHYLTDPDPSREMMDLPANISNFGRDDASLVLPANLMGGADTSLPNIDRYKMDLPSEIYPNDPMPRGISTPPMNMKFNLGENIGRDVDRGVMNGFGAERQYQDPMIEIEQNLGNIRFESGNEKIKATITKFDEDYYGNEICAQCQAEDAYMDRMRRQAEEERRKYEETMKRAKMYEDLTREKEETFKREEAERNKALRDHVDRVNAEMIEMKKRRPKSPVLENYIFRHESPRSRDVEVRTRKDAYRAELDRQVEEKRLRRIAEFEKNEAIDATSNARAALEFANAREAERKSIEHAKEMARKQLEFQMEMSRVGAPSDKNWLWWAERPDEHGWRDARLKGLKHTNQVERNQTFKQSIGMLEEFKARQAHDDMVMRDNRRAKYDKLRDQLHENSKMLYPLTKTESRPIIVQPDPRVEAAWREAHEKYDRKFAVLQDNAMKSISGAALDGVAHATTSCRRCARCARPMERKTTLFVNRGETILPHQANWHS | not soluble
13 | MHHHHHHLESSGDFSLLSSPINREKNGTEIVKFSIHPYKGTVIRLGEEILPFKVLEMDKNIALVEMAIPVYKDEKEIELKLSSPGFQNSSYRIRKPEELNEKLIALDKEGITHRFISRFKTGFQPKSVRFIDNTRLAIPLLEDEGMDVLDINSGQTVRLSPPEKYKKKLGFVETISIPEHNELWVSQMQANAVHVFDLKTLAYKATVDLTGKWSKILLYDPIRDLVYCSNWISEDISVIDRKTKLEIRKTDKIGLPRGLLLSKDGKELYIAQFSASNQESGGGRLGIYSMDKEKLIDTIGPPGNKRHIVSGNTENKIYVSDMCCSKIEVYDLKEKKVQKSIPVFDKPNTIALSPDGKYLYVSCRGPNHPTEGYLKKGLVLGKVYVIDTTTDTVKEFWEAGNQPTGLDVSPDNRYLVISDFLDHQIRVYRRDGF | soluble
14 | MTEHLDVVIVGAGISGVSAAWHLQDRCPTKSYAILEKRESMGGTWDLFRYPGIRSDSDMYTLGFRFRPWTGRQAIADGKPILEYVKSTAAMYGIDRHIRFHHKVISADWSTAENRWTVHIQSHGTLSALTCEFLFLCSGYYNYDEGYSPRFAGSEDFVGPIIHPQHWPEDLDYDAKNIVVIGSGATAVTLVPALADSGAKHVTMLQRSPTYIVSQPDRDGIAEKLNRWLPETMAYTAVRWKNVLRQAAVYSACQKWPRRMRKMFLSLIQRQLPEGYDVRKHFGPHYNPWDQRLCLVPNGDLFRAIRHGKVEVVTDTIERFTATGIRLNSGRELPADIIITATGLNLQLFGGATATIDGQQVDITTTMAYKGMMLSGIPNMAYTVGYTNASWTLKADLVSEFVCRLLNYMDDNGFDTVVVERPGSDVEERPFMEFTPGYVLRSLDELPKQGSRTPWRLNQNYLRDIRLIRRGKIDDEGLRFAKRPAPVGV | soluble
15 | LYAFFKTMPKGGELHYHLAGGAYPETMLALAANGNYCLDKHTFAVSKDSSHCEGVNVKEVFNNPELYSNIIKDWSMKDFIPGKESGHDHFFNGFIKYMPIVFDYQPQLLADIVQRAAQQKAQYLEIMTIPDNAQSLTYGDLIKDIPSYDQKRRLLLANKDFQSNIQNTVLESDRILTKASQELRCNENPASDSCHVKIKFLYYVLREQPVDNVFAQALNAFEAVSKSKGNLIGVNLVQPEDGIISLRDYQKHMSIFEYLHRIYPNVPITLHAGELSPQAVTPENLSHHIRDALLIGHAQRIGHGVDIGYENNAEDTLKYMANHHIPVEINLISNLKILDISGSNHPLNYYLSHNVPVVLSTDDEGVLRTDLTQQYVEAAKEHGLSYQQLKQINRNTLTYSFLPGKSIWANADKAELVPDCHDLGSKSCQKFIAHNEKAKLQWNLEQQLIAFEKS | not soluble
16 | TGTAIYFIHGTADQPAAFKRVAERLIDTGLPDEICSLNLLAFDQRYQGKSIKFFAEQLKNKIKVNQHQRVILMAHSRGGLVASYFAEFLAKEASIDVPLVITMGTPFNGSYLAVKPLSWFSDSIREMEINSEFLAQLKQEIVEHSVSAYHFFIAKEDAIVPGESGYIKDYVDKYPESLHILDRHGHLSIMSSHRLVSHISSLLHDYIDDY | not soluble

Source: the DeepSol protein solubility set
